Results published in patent publication US20090060916A1 (published 2009).
Several values for one entry are separate records, joined by “and”; a condition that tells them apart may be missing. Identical values can stand only once. Like-named read-outs stand apart in the source and are kept apart here.

Key:
human IL-13 [1] = target: T1, human IL-13 (human, UniProt P35225 35-146, biotinylated on the Biacore chip); experiment: cell-based or functional assay
human IL-13 [2] = target: T1, human IL-13; experiment: DOM10 RBA (IL-13 sandwich ELISA per paragraph 473)
Procedure: (§1) A MAXISORP™ plate (high protein binding ELISA plate, Nunc, Denmark) was coated overnight with 2.5 μg/ml coating antibody (Module Set, Bender MedSystems, Vienna, Austria), then washed once with 0.05% (v/v) Tween 20 in PBS before blocking with 0.5% (w/v) BSA 0.05% (v/v) Tween 20 in PBS. […] The plate was then incubated with TMB substrate (KPL, Gaithersburg, USA), and the reaction was stopped by the addition of HCl and the absorbance read at 450 nm.
These in-line fusions were constructed and expressed as described above. […] After this incubation, the level of cell proliferation was determined.

human IL-13 [3] = target: T1, human IL-13; experiment: IL-13 BIAcore binding assay
human IL-13 [4] = target: T1, human IL-13; experiment: IL-13 sandwich ELISA, competition with coating antibody
Procedure: as §1

human IL-13 [5] = target: T1, human IL-13; experiment: IL-13 BIAcore binding assay; remark: listed apart in the source
human IL-13 [6] = target: T1, human IL-13; experiment: cell-based or functional assay; remark: listed apart in the source

T1 sequence (P35225 35-146 limits assumed): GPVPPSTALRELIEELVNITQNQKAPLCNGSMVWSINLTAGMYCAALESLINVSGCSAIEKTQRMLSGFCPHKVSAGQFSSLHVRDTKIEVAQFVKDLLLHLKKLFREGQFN

B1: DOM10-275-1 (other)
VH: EVQLLESGGGLVQPGGSLRLSCAASGFTFDREEMDWVRQAPGKGLEWVSTISPSGRKTYYADSVKGRFTISRDNSKNTLYLQMNSLRAEDTAVYYCAKAYTGFDYWGQGTLVTVSS
notes: VH dAb
IC50, IL-13 cell binding assay (so in the source) (human IL-13 [1]): 37 nM | IC50 (human IL-13 [2]): 31.3 nM | Kd (human IL-13 [3]): 25 nM and 28 nM and 27 nM | IC50 (human IL-13 [4]): 38 nM

B2: DOM10-276-15 (other)
VH: EVQLLESGGGLVQPGGSLRLSCAASGFTFRDYEMDWVRQAPGKGLEWVSSISPNGSETNYADSVKGRFTISRDNSKNTLYLQMNSLRAEDTAVYYCAKAYTSFDYWGQGTLVTVSS
notes: VH dAb
Kd (human IL-13 [5]): 1.5 nM | IC50, IL-13 cell binding assay (so in the source) (human IL-13 [6]): 90 nM | IC50 (human IL-13 [4]): 100 nM
